Measured values: PMC9482650, “Quantitative fragmentomics allow affinity mapping of interactomes” (Nature Communications, 2022)

Experiments:
Assay in all cases: holdup assay
Parameters in all cases: key: below the threshold = too weak to quantify, mostly under pKd 3.1 to 4
[1] = target: DLG2_2, Q15700
[2] = target: PTPN3, P26045
[3] = target: GRIP2_6, Q9C0E4
[4] = target: GRASP, Q7Z6J2
[5] = target: SNX27, Q96L92
[6] = target: T1, LNX2_3, Q8N448
T1 sequence (Q8N448 463-564, limits assumed, looked up): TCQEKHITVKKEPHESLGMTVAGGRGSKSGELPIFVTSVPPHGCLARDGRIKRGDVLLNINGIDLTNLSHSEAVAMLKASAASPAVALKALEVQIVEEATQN

[7] = target: GIPC2, Q8TF65
GIPC2, Q8TF65, sequence (Q8TF65 112-203): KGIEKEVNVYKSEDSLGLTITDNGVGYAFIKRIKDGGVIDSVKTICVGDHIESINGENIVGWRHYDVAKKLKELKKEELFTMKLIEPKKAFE

[8] = target: Inadl_10, Q8NI35
Inadl_10, Q8NI35, sequence (Q8NI35 1673-1763): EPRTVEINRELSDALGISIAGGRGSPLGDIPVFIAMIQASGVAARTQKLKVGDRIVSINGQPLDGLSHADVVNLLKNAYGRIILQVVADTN

[9] = target: Inadl_8, Q8NI35
Inadl_8, Q8NI35, sequence (Q8NI35 1425-1530): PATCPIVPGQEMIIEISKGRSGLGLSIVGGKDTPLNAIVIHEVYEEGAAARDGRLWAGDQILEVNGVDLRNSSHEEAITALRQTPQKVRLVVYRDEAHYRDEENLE

[10] = target: SCRIB_1, Q14160
SCRIB_1, Q14160, sequence (Q14160 718-814): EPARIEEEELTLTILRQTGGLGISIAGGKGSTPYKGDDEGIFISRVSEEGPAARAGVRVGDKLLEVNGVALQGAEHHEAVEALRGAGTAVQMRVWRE

[11] = target: T2, CARD11, Q9BXL7
T2 sequence (Q9BXL7 662-765, limits assumed, looked up): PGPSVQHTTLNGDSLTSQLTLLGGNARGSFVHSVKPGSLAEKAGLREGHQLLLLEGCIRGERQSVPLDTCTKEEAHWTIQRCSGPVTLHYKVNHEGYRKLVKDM

[12] = target: FRMPD3, Q5JV73
FRMPD3, Q5JV73, sequence (Q5JV73 12-100): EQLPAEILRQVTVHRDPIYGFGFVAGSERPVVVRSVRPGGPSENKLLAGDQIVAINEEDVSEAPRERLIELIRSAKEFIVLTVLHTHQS

[13] = target: MAGI2_5, Q86UL8
MAGI2_5, Q86UL8, sequence (Q86UL8 915-1017): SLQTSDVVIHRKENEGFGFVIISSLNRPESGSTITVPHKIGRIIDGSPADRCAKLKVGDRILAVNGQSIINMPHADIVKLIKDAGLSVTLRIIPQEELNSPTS

[14] = target: NHERF4_1, Q86UT5-2
NHERF4_1, Q86UT5-2, sequence (Q86UT5 other isoform, or with tags, fused parts or gaps): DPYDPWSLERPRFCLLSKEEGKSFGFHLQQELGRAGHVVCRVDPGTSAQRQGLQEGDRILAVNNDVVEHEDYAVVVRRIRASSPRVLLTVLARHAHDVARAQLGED

[15] = target: T3, FRMPD1, Q5SYB0
T3 sequence (Q5SYB0 52-145, limits assumed, looked up): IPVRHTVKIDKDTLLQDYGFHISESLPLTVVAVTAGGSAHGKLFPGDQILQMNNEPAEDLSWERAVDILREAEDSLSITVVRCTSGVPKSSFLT

[16] = target: T4, MPP2, Q14168
T4 sequence (Q14168 180-250, limits assumed, looked up): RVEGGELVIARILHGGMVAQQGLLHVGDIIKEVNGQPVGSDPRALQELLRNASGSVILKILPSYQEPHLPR

[17] = target: LDB3, O75112
LDB3, O75112, sequence (O75112 1-94): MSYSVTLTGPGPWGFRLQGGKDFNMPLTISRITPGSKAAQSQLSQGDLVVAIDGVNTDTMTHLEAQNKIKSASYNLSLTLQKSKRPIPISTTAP

[18] = target: T5, PDZRN3_1, Q9UPQ7
T5 sequence (Q9UPQ7 244-349, limits assumed, looked up): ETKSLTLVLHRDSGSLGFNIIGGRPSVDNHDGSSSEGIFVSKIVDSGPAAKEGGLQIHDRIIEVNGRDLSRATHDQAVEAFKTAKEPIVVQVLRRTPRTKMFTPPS

[19] = target: Inadl_3, Q8NI35
Inadl_3, Q8NI35, sequence (Q8NI35 359-469): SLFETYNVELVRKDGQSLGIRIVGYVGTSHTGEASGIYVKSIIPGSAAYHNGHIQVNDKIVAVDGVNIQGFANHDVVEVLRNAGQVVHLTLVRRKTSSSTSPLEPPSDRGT

[20] = target: T6, PARD3B_1, Q8TEW8
T6 sequence (Q8TEW8 196-299, limits assumed, looked up): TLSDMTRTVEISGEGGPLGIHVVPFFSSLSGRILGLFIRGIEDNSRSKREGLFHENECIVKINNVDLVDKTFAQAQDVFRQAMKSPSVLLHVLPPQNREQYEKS

[21] = target: MAGI1_1, Q96QZ7
MAGI1_1, Q96QZ7, sequence (Q96QZ7 1-106): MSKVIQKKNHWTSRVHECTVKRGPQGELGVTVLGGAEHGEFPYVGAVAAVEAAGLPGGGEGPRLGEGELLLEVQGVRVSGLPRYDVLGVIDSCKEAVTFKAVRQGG

[22] = target: MAGI2_6, Q86UL8
MAGI2_6, Q86UL8, sequence (Q86UL8 1141-1229): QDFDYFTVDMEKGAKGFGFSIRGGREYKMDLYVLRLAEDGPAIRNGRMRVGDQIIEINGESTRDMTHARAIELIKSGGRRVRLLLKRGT

[23] = target: LIMK2, P53671
LIMK2, P53671, sequence (P53671 143-248): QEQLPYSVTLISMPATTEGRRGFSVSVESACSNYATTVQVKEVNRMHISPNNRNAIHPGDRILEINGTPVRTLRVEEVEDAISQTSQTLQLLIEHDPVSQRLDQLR

[24] = target: T7, LIN7A, O14910
T7 sequence (O14910 103-200, limits assumed, looked up): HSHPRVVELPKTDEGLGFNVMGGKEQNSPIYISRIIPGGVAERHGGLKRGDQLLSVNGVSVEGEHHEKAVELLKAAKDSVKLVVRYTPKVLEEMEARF

[25] = target: T8, RADIL, Q96JH8
T8 sequence (Q96JH8 971-1071, limits assumed, looked up): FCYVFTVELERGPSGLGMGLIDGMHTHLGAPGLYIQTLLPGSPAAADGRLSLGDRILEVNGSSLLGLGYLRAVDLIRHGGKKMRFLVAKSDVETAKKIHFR

[26] = target: T9, ARHGAP21, Q5T5U3
T9 sequence (Q5T5U3 45-169, limits assumed, looked up): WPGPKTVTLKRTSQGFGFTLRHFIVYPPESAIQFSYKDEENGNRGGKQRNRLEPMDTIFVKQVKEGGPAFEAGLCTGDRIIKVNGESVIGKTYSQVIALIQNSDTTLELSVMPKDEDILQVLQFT

[27] = target: ARHGEF12, Q9NZN5-2
ARHGEF12, Q9NZN5-2, sequence (Q9NZN5 other isoform, or with tags, fused parts or gaps): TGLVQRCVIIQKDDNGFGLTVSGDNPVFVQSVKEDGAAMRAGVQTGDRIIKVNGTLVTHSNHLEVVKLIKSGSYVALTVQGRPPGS

[28] = target: DLG4_1, P78352
DLG4_1, P78352, sequence (P78352 62-152): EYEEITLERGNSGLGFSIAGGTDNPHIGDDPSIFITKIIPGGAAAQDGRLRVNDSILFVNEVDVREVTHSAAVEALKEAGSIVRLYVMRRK

[29] = target: MAST2, Q6P0Q8
MAST2, Q6P0Q8, sequence (Q6P0Q8 1099-1202): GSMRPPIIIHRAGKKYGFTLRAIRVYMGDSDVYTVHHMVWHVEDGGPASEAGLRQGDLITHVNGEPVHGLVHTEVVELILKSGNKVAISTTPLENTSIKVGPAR

[30] = plain residues with an end cap or a label only (N-terminal biotin on a linker: ado-ado)
[31] = plain residues with an end cap or a label only (N-terminal biotin on a linker: (peg)3)

GRIP2_6, Q9C0E4, sequence (Q9C0E4 648-740): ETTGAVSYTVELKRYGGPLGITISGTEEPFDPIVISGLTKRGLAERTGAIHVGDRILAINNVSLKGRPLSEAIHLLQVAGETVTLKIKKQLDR
DLG2_2, Q15700, sequence (Q15700 189-283): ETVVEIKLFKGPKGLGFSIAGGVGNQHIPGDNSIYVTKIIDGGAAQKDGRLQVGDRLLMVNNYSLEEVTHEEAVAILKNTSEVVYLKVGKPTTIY
PTPN3, P26045, sequence (P26045 505-587): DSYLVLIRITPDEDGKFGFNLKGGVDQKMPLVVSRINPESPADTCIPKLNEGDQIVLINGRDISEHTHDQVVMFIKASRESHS
GRASP, Q7Z6J2, sequence (Q7Z6J2 96-193): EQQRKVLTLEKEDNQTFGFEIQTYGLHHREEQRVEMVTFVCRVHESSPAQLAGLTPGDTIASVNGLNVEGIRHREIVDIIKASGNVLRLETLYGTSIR

EDPRVEVTQF [SLC22A9, Q8IVM8]
pKd [1, 30]: below the threshold | pKd [2, 30]: 4.18 | pKd [3, 30]: below the threshold | pKd [4, 30]: 5.02 | pKd [5, 30]: 5.39 | pKd [6, 30]: below the threshold | pKd [7, 30]: below the threshold | pKd [8, 30]: below the threshold | pKd [9, 30]: below the threshold | pKd [10, 30]: 3.91 | pKd [11, 30]: below the threshold | pKd [12, 30]: below the threshold | pKd [13, 30]: 4.86 | pKd [14, 30]: 4.3 | pKd [15, 30]: below the threshold | pKd [16, 30]: below the threshold | pKd [17, 30]: below the threshold | pKd [18, 30]: below the threshold | pKd [19, 30]: below the threshold | pKd [20, 30]: 4.26 | pKd [21, 30]: below the threshold | pKd [22, 30]: 3.87 | pKd [23, 30]: below the threshold | pKd [24, 30]: below the threshold | pKd [25, 30]: below the threshold | pKd [26, 30]: below the threshold | pKd [27, 30]: below the threshold | pKd [28, 30]: below the threshold | pKd [29, 30]: 5.4

QQSMSSADSTQA [SARS-Cov2-N, P0DTC9]
pKd [1, 31]: below the threshold | pKd [2, 31]: below the threshold | pKd [3, 31]: below the threshold | pKd [4, 31]: below the threshold | pKd [5, 31]: below the threshold | pKd [6, 31]: 3.88 | pKd [7, 31]: below the threshold | pKd [8, 31]: below the threshold | pKd [9, 31]: below the threshold | pKd [10, 31]: below the threshold | pKd [11, 31]: below the threshold | pKd [12, 31]: below the threshold | pKd [13, 31]: below the threshold | pKd [14, 31]: below the threshold | pKd [15, 31]: below the threshold | pKd [16, 31]: below the threshold | pKd [17, 31]: below the threshold | pKd [18, 31]: below the threshold | pKd [19, 31]: below the threshold | pKd [20, 31]: below the threshold | pKd [21, 31]: below the threshold | pKd [22, 31]: below the threshold | pKd [23, 31]: below the threshold | pKd [24, 31]: below the threshold | pKd [25, 31]: below the threshold | pKd [26, 31]: below the threshold | pKd [27, 31]: below the threshold | pKd [28, 31]: below the threshold | pKd [29, 31]: below the threshold

ELSATVTTDC [TRIP6, Q15654]
pKd [1, 30]: 3.59 | pKd [2, 30]: 4.31 | pKd [3, 30]: below the threshold | pKd [4, 30]: 3.54 | pKd [5, 30]: 4.57 | pKd [6, 30]: below the threshold | pKd [7, 30]: below the threshold | pKd [8, 30]: below the threshold | pKd [9, 30]: 3.55 | pKd [10, 30]: 4.48 | pKd [11, 30]: below the threshold | pKd [12, 30]: below the threshold | pKd [13, 30]: below the threshold | pKd [14, 30]: 3.69 | pKd [15, 30]: below the threshold | pKd [16, 30]: below the threshold | pKd [17, 30]: 3.72 | pKd [18, 30]: below the threshold | pKd [19, 30]: below the threshold | pKd [20, 30]: below the threshold | pKd [21, 30]: 3.82 | pKd [22, 30]: 4.24 | pKd [23, 30]: below the threshold | pKd [24, 30]: below the threshold | pKd [25, 30]: 3.52 | pKd [26, 30]: 4.27 | pKd [27, 30]: 4.44 | pKd [28, 30]: below the threshold | pKd [29, 30]: 4.9

DDASLPVSDV [PLEKHA1, Q9HB21]
pKd [1, 30]: below the threshold | pKd [2, 30]: 3.58 | pKd [3, 30]: below the threshold | pKd [4, 30]: 3.65 | pKd [5, 30]: below the threshold | pKd [6, 30]: below the threshold | pKd [7, 30]: below the threshold | pKd [8, 30]: below the threshold | pKd [9, 30]: 4.94 | pKd [10, 30]: below the threshold | pKd [11, 30]: below the threshold | pKd [12, 30]: below the threshold | pKd [13, 30]: below the threshold | pKd [14, 30]: below the threshold | pKd [15, 30]: below the threshold | pKd [16, 30]: below the threshold | pKd [17, 30]: below the threshold | pKd [18, 30]: below the threshold | pKd [19, 30]: below the threshold | pKd [20, 30]: below the threshold | pKd [21, 30]: below the threshold | pKd [22, 30]: 5.09 | pKd [23, 30]: below the threshold | pKd [24, 30]: below the threshold | pKd [25, 30]: 3.59 | pKd [26, 30]: 3.5 | pKd [27, 30]: 4.36 | pKd [28, 30]: below the threshold | pKd [29, 30]: 4.73
